Experimental data reported in paper PMC10219423, “Characterization of a New Thermostable and Organic Solution-Tolerant Lipase from Pseudomonas fluorescens and Its Application in the Enrichment of Polyunsaturated Fatty Acids” (International Journal of Molecular Sciences, 2023).

System: CCCCCCCC(=O)Oc1ccc([N+](=O)[O-])cc1
Assay: purified protein
Format: biochemical, Pseudomonas fluorescens
Settings: Tris-HCl 50 mM, pH 8.0, 40 °C, ethanol and acetonitrile present, 0.01-2.0 mM substrate

LipB (Pseudomonas fluorescens) gave a Km of 0.81 mM.
